Assay results reported in PMC8167298, “Structural Investigations of Human A2M Identify a Hollow Native Conformation That Underlies Its Distinctive Protease-Trapping Mechanism” (Molecular & Cellular Proteomics : MCP, 2021).

What was measured:
[1] = biological target: the molecule itself; assay: negative stain electron microscopy; A2M at 78 μg/ml on carbon-coated copper grids, 2% w/v uranyl formate; 2D classes and 3D refinement with D2 symmetry imposed, 24 Å map
[2] = biological target: the molecule itself; assay: nonreducing SDS-PAGE; nonreducing SDS-PAGE on 5 to 15% gradient gels; shows disulfide-linked oligomers; DSSO-cross-linked A2M-MA defines the dimer and tetramer bands
[3] = biological target: the molecule itself; assay: SEC; Sephacryl S-300 HR column in HBS, samples after DSSO cross-linking

Protein	stoichiometry N [1]	stoichiometry N [2]	stoichiometry N [3]
Human α2-macroglobulin (A2M), native conformation, plasma-purified (natural protein, UniProt P01023 24-1474, looked up, intact thiol ester between the cysteine and glutamine of the CGEQ motif; N-glycans; intersubunit Cys278/Cys431 disulfides in each disulfide-bridged dimer, α2-macroglobulin, human, from plasma; original N-terminus at position 24; Homotetramer of 720 kDa, a dimer of disulfide-bridged dimers; In the cross-linking, SEC and native PAGE rows the protein carried DSSO cross-links; SAXS was also measured on deglycosylated A2M; also called native A2M; plasma A2M; source: purified from plasma from a healthy volunteer, never frozen) SVSGKPQYMVLVPSLLHTETTEKGCVLLSYLNETVTVSASLESVRGNRSLFTDLEAENDVLHCVAFAVPKSSSNEEVMFLTVQVKGPTQEFKKRTTVMVKNEDSLVFVQTDKSIYKPGQTVKFRVVSMDENFHPLNELIPLVYIQDPKGNRIAQWQSFQLEGGLKQFSFPLSSEPFQGSYKVVVQKKSGGRTEHPFTVEEFVLPKFEVQVTVPKIITILEEEMNVSVCGLYTYGKPVPGHVTVSICRKYSDASDCHGEDSQAFCEKFSGQLNSHGCFYQQVKTKVFQLKRKEYEMKLHTEAQIQEEGTVVELTGRQSSEITRTITKLSFVKVDSHFRQGIPFFGQVRLVDGKGVPIPNKVIFIRGNEANYYSNATTDEHGLVQFSINTTNVMGTSLTVRVNYKDRSPCYGYQWVSEEHEEAHHTAYLVFSPSKSFVHLEPMSHELPCGHTQTVQAHYILNGGTLLGLKKLSFYYLIMAKGGIVRTGTHGLLVKQEDMKGHFSISIPVKSDIAPVARLLIYAVLPTGDVIGDSAKYDVENCLANKVDLSFSPSQSLPASHAHLRVTAAPQSVCALRAVDQSVLLMKPDAELSASSVYNLLPEKDLTGFPGPLNDQDNEDCINRHNVYINGITYTPVSSTNEKDMYSFLEDMGLKAFTNSKIRKPKMCPQLQQYEMHGPEGLRVGFYESDVMGRGHARLVHVEEPHTETVRKYFPETWIWDLVVVNSAGVAEVGVTVPDTITEWKAGAFCLSEDAGLGISSTASLRAFQPFFVELTMPYSVIRGEAFTLKATVLNYLPKCIRVSVQLEASPAFLAVPVEKEQAPHCICANGRQTVSWAVTPKSLGNVNFTVSAEALESQELCGTEVPSVPEHGRKDTVIKPLLVEPEGLEKETTFNSLLCPSGGEVSEELSLKLPPNVVEESARASVSVLGDILGSAMQNTQNLLQMPYGCGEQNMVLFAPNIYVLDYLNETQQLTPEIKSKAIGYLNTGYQRQLNYKHYDGSYSTFGERYGRNQGNTWLTAFVLKTFAQARAYIFIDEAHITQALIWLSQRQKDNGCFRSSGSLLNNAIKGGVEDEVTLSAYITIALLEIPLTVTHPVVRNALFCLESAWKTAQEGDHGSHVYTKALLAYAFALAGNQDKRKEVLKSLNEEAVKKDNSVHWERPQKPKAPVGHFYEPQAPSAEVEMTSYVLLAYLTAQPAPTSEDLTSATNIVKWITKQQNAQGGFSSTQDTVVALHALSKYGAATFTRTGKAAQVTIQSSGTFSSKFQVDNNNRLLLQQVSLPELPGEYSMKVTGEGCVYLQTSLKYNILPEKEEFPFALGVQTLPQTCDEPKAHTSFQISLSVSYTGSRSASNMAIVDVKMVSGFIPLKPTVKMLERSNHVSRTEVSSNHVLIYLDKVSNQTLSLFFTVLQDVPVRDLKPAIVKVYDYYETDEFAIAEYNAPCSKDLGNA	4	2	
A2M^3K, recombinant A2M with the Arg704Lys, Arg715Lys and Arg719Lys mutations (natural protein, human, UniProt P01023 24-1474, looked up, α2-macroglobulin, human, recombinant; the three bait region arginines replaced with lysines; The protein is secreted into the culture supernatant; also called A2M^3K (R704K R715K R719K); source: HEK293 Freestyle cells, transiently transfected, purified from the supernatant by the protocol used for plasma A2M) SVSGKPQYMVLVPSLLHTETTEKGCVLLSYLNETVTVSASLESVRGNRSLFTDLEAENDVLHCVAFAVPKSSSNEEVMFLTVQVKGPTQEFKKRTTVMVKNEDSLVFVQTDKSIYKPGQTVKFRVVSMDENFHPLNELIPLVYIQDPKGNRIAQWQSFQLEGGLKQFSFPLSSEPFQGSYKVVVQKKSGGRTEHPFTVEEFVLPKFEVQVTVPKIITILEEEMNVSVCGLYTYGKPVPGHVTVSICRKYSDASDCHGEDSQAFCEKFSGQLNSHGCFYQQVKTKVFQLKRKEYEMKLHTEAQIQEEGTVVELTGRQSSEITRTITKLSFVKVDSHFRQGIPFFGQVRLVDGKGVPIPNKVIFIRGNEANYYSNATTDEHGLVQFSINTTNVMGTSLTVRVNYKDRSPCYGYQWVSEEHEEAHHTAYLVFSPSKSFVHLEPMSHELPCGHTQTVQAHYILNGGTLLGLKKLSFYYLIMAKGGIVRTGTHGLLVKQEDMKGHFSISIPVKSDIAPVARLLIYAVLPTGDVIGDSAKYDVENCLANKVDLSFSPSQSLPASHAHLRVTAAPQSVCALRAVDQSVLLMKPDAELSASSVYNLLPEKDLTGFPGPLNDQDNEDCINRHNVYINGITYTPVSSTNEKDMYSFLEDMGLKAFTNSKIRKPKMCPQLQQYEMHGPEGLKVGFYESDVMGKGHAKLVHVEEPHTETVRKYFPETWIWDLVVVNSAGVAEVGVTVPDTITEWKAGAFCLSEDAGLGISSTASLRAFQPFFVELTMPYSVIRGEAFTLKATVLNYLPKCIRVSVQLEASPAFLAVPVEKEQAPHCICANGRQTVSWAVTPKSLGNVNFTVSAEALESQELCGTEVPSVPEHGRKDTVIKPLLVEPEGLEKETTFNSLLCPSGGEVSEELSLKLPPNVVEESARASVSVLGDILGSAMQNTQNLLQMPYGCGEQNMVLFAPNIYVLDYLNETQQLTPEIKSKAIGYLNTGYQRQLNYKHYDGSYSTFGERYGRNQGNTWLTAFVLKTFAQARAYIFIDEAHITQALIWLSQRQKDNGCFRSSGSLLNNAIKGGVEDEVTLSAYITIALLEIPLTVTHPVVRNALFCLESAWKTAQEGDHGSHVYTKALLAYAFALAGNQDKRKEVLKSLNEEAVKKDNSVHWERPQKPKAPVGHFYEPQAPSAEVEMTSYVLLAYLTAQPAPTSEDLTSATNIVKWITKQQNAQGGFSSTQDTVVALHALSKYGAATFTRTGKAAQVTIQSSGTFSSKFQVDNNNRLLLQQVSLPELPGEYSMKVTGEGCVYLQTSLKYNILPEKEEFPFALGVQTLPQTCDEPKAHTSFQISLSVSYTGSRSASNMAIVDVKMVSGFIPLKPTVKMLERSNHVSRTEVSSNHVLIYLDKVSNQTLSLFFTVLQDVPVRDLKPAIVKVYDYYETDEFAIAEYNAPCSKDLGNA			4
A2M^LNK/LNK, recombinant A2M with the Thr654Cys and Thr661Cys mutations (natural protein, human, UniProt P01023 24-1474, looked up, intersubunit disulfide between Cys654 and Cys661 of opposite subunits, α2-macroglobulin, human, recombinant; two cysteines introduced in the LNK region; The protein is secreted into the culture supernatant; also called A2M^LNK/LNK (T654C T661C); source: HEK293 Freestyle cells, transiently transfected, purified from the supernatant by the protocol used for plasma A2M) SVSGKPQYMVLVPSLLHTETTEKGCVLLSYLNETVTVSASLESVRGNRSLFTDLEAENDVLHCVAFAVPKSSSNEEVMFLTVQVKGPTQEFKKRTTVMVKNEDSLVFVQTDKSIYKPGQTVKFRVVSMDENFHPLNELIPLVYIQDPKGNRIAQWQSFQLEGGLKQFSFPLSSEPFQGSYKVVVQKKSGGRTEHPFTVEEFVLPKFEVQVTVPKIITILEEEMNVSVCGLYTYGKPVPGHVTVSICRKYSDASDCHGEDSQAFCEKFSGQLNSHGCFYQQVKTKVFQLKRKEYEMKLHTEAQIQEEGTVVELTGRQSSEITRTITKLSFVKVDSHFRQGIPFFGQVRLVDGKGVPIPNKVIFIRGNEANYYSNATTDEHGLVQFSINTTNVMGTSLTVRVNYKDRSPCYGYQWVSEEHEEAHHTAYLVFSPSKSFVHLEPMSHELPCGHTQTVQAHYILNGGTLLGLKKLSFYYLIMAKGGIVRTGTHGLLVKQEDMKGHFSISIPVKSDIAPVARLLIYAVLPTGDVIGDSAKYDVENCLANKVDLSFSPSQSLPASHAHLRVTAAPQSVCALRAVDQSVLLMKPDAELSASSVYNLLPEKDLTGFPGPLNDQDNEDCINRHNVYINGICYTPVSSCNEKDMYSFLEDMGLKAFTNSKIRKPKMCPQLQQYEMHGPEGLRVGFYESDVMGRGHARLVHVEEPHTETVRKYFPETWIWDLVVVNSAGVAEVGVTVPDTITEWKAGAFCLSEDAGLGISSTASLRAFQPFFVELTMPYSVIRGEAFTLKATVLNYLPKCIRVSVQLEASPAFLAVPVEKEQAPHCICANGRQTVSWAVTPKSLGNVNFTVSAEALESQELCGTEVPSVPEHGRKDTVIKPLLVEPEGLEKETTFNSLLCPSGGEVSEELSLKLPPNVVEESARASVSVLGDILGSAMQNTQNLLQMPYGCGEQNMVLFAPNIYVLDYLNETQQLTPEIKSKAIGYLNTGYQRQLNYKHYDGSYSTFGERYGRNQGNTWLTAFVLKTFAQARAYIFIDEAHITQALIWLSQRQKDNGCFRSSGSLLNNAIKGGVEDEVTLSAYITIALLEIPLTVTHPVVRNALFCLESAWKTAQEGDHGSHVYTKALLAYAFALAGNQDKRKEVLKSLNEEAVKKDNSVHWERPQKPKAPVGHFYEPQAPSAEVEMTSYVLLAYLTAQPAPTSEDLTSATNIVKWITKQQNAQGGFSSTQDTVVALHALSKYGAATFTRTGKAAQVTIQSSGTFSSKFQVDNNNRLLLQQVSLPELPGEYSMKVTGEGCVYLQTSLKYNILPEKEEFPFALGVQTLPQTCDEPKAHTSFQISLSVSYTGSRSASNMAIVDVKMVSGFIPLKPTVKMLERSNHVSRTEVSSNHVLIYLDKVSNQTLSLFFTVLQDVPVRDLKPAIVKVYDYYETDEFAIAEYNAPCSKDLGNA		4	
Recombinant wild-type A2M (natural protein, human, UniProt P01023 24-1474, looked up, α2-macroglobulin, human, recombinant wild type; source: HEK293 Freestyle cells, transiently transfected, purified from the supernatant by the protocol used for plasma A2M) SVSGKPQYMVLVPSLLHTETTEKGCVLLSYLNETVTVSASLESVRGNRSLFTDLEAENDVLHCVAFAVPKSSSNEEVMFLTVQVKGPTQEFKKRTTVMVKNEDSLVFVQTDKSIYKPGQTVKFRVVSMDENFHPLNELIPLVYIQDPKGNRIAQWQSFQLEGGLKQFSFPLSSEPFQGSYKVVVQKKSGGRTEHPFTVEEFVLPKFEVQVTVPKIITILEEEMNVSVCGLYTYGKPVPGHVTVSICRKYSDASDCHGEDSQAFCEKFSGQLNSHGCFYQQVKTKVFQLKRKEYEMKLHTEAQIQEEGTVVELTGRQSSEITRTITKLSFVKVDSHFRQGIPFFGQVRLVDGKGVPIPNKVIFIRGNEANYYSNATTDEHGLVQFSINTTNVMGTSLTVRVNYKDRSPCYGYQWVSEEHEEAHHTAYLVFSPSKSFVHLEPMSHELPCGHTQTVQAHYILNGGTLLGLKKLSFYYLIMAKGGIVRTGTHGLLVKQEDMKGHFSISIPVKSDIAPVARLLIYAVLPTGDVIGDSAKYDVENCLANKVDLSFSPSQSLPASHAHLRVTAAPQSVCALRAVDQSVLLMKPDAELSASSVYNLLPEKDLTGFPGPLNDQDNEDCINRHNVYINGITYTPVSSTNEKDMYSFLEDMGLKAFTNSKIRKPKMCPQLQQYEMHGPEGLRVGFYESDVMGRGHARLVHVEEPHTETVRKYFPETWIWDLVVVNSAGVAEVGVTVPDTITEWKAGAFCLSEDAGLGISSTASLRAFQPFFVELTMPYSVIRGEAFTLKATVLNYLPKCIRVSVQLEASPAFLAVPVEKEQAPHCICANGRQTVSWAVTPKSLGNVNFTVSAEALESQELCGTEVPSVPEHGRKDTVIKPLLVEPEGLEKETTFNSLLCPSGGEVSEELSLKLPPNVVEESARASVSVLGDILGSAMQNTQNLLQMPYGCGEQNMVLFAPNIYVLDYLNETQQLTPEIKSKAIGYLNTGYQRQLNYKHYDGSYSTFGERYGRNQGNTWLTAFVLKTFAQARAYIFIDEAHITQALIWLSQRQKDNGCFRSSGSLLNNAIKGGVEDEVTLSAYITIALLEIPLTVTHPVVRNALFCLESAWKTAQEGDHGSHVYTKALLAYAFALAGNQDKRKEVLKSLNEEAVKKDNSVHWERPQKPKAPVGHFYEPQAPSAEVEMTSYVLLAYLTAQPAPTSEDLTSATNIVKWITKQQNAQGGFSSTQDTVVALHALSKYGAATFTRTGKAAQVTIQSSGTFSSKFQVDNNNRLLLQQVSLPELPGEYSMKVTGEGCVYLQTSLKYNILPEKEEFPFALGVQTLPQTCDEPKAHTSFQISLSVSYTGSRSASNMAIVDVKMVSGFIPLKPTVKMLERSNHVSRTEVSSNHVLIYLDKVSNQTLSLFFTVLQDVPVRDLKPAIVKVYDYYETDEFAIAEYNAPCSKDLGNA		2	
